Assay results: publication PMC4838357

Columns and labels:
Assay in all cases: MITOMI
Zif268 I28A = Zif268 I28A (mouse, UniProt P08046 333-421, I359A)
Zif268 R70A = Zif268 R70A (mouse, UniProt P08046 333-421, R401A)
Zif268 R14A = Zif268 R14A (mouse, UniProt P08046 333-421, R345A)

Measured: binding result

B1: target_268wt (Zif268 consensus) (dsDNA)
DNA 1: GGCCAATTAGCGTGGGCGTTTTCCGGCGGTATGAC
DNA 2: GTCATACCGCCGGAAAACGCCCACGCTAATTGGCC
binds: all assays above
